Source: the DeepSol protein solubility set

test: soluble on expression in E. coli; label from the status in PepcDB or PDB records

Sequence	soluble on expression in E. coli
MRGSHHHHHHGSIEGRMEKINYLLPEESAEMTLNQVKSLRQIEGRLRKLFSLKNYQEVMPPSFEYTQLYTALESNGKTFNQEKMFQFIKHEGQSITLRYDFTLPLVRLYSQIKDSTSARYSYFGKIFRKEKRHKGRSTENYQIGIELFGESADKSELEILSLALQVIEQLGLNKTVFEIGSAKFFQRLCQLADGSTELLTELLLKKDLSGLNAFIEKNNFSKELRGLLKEIFITNELSRLENLVTNTKDDVLISSFDQLKEFSEKLSMIKPIIIDLGMVPKMDYYTDLMFKAYSSAANQPILSGGRYDQLLSNFQEEAFAIGFCCHMDTILKALERQELEEDND	soluble
MGSDKIHHHHHHMKTNNSPISLLQTQNNTYNVLNNIKVHVEVRDNPYNLELDNLFQMAARINKKRSFLFVSTILGKHLPIKPAVSLASGFALAARYMEILHNTFHPFQKEILNLISLEVDEIPEEIFHYQYPLPEEVLFIGFAETATALGHSMFQCFQNAKYVHTTRESIPNLESVITFEEEHSHATSHRCYVDKSFFQNNNPIILVDDEMTTGKTALNIIRSIQQQFPREEYTIASLLDWRSNTNRRQFKQLEEELQIKIHVISLLEGRIHTTGQPLNITKTDTHIEETKPYFKKHTIICPALSYTSNYIKYTGRFGISSYEQKHIHSFAQEAGKMLQRKRIGKRTLCLGTGEFMYIPMKIAAEMGENILYQSTTRSPIHPVSNDVNYAIHNHFSYPNPEDSTITNYFYNISPHEYDEVFVFMERDVGEEALSPLLQHLQTVIPCIHIVSFSNSIEKEG	not soluble
MERGRSDMEMINNMANCLILLSKAHQNDTKSRVFACKTCNKEFPSFQALGGHRASHRRSAALEGHAPPSPKRVKPVKHECPICGAEFAVGQALGGHMRKHRGGSGGGGGRSLAPATAPVTMKKSGGGNGKRVLCLDLNLTPLENEDLKLELGRFIF	soluble
MAQVKTQRLYYSLKDYFKEKYGKRVQKITVALPFTCPNRDGTKGRGGCTYCYDGSKPSMLSPVIPLEVQIKEGIERAKKKYGEDIYFTIYYQSYTNTYADIETLKKVYDTALKFEGVVGIDVGTRPDCAPEEVLDLLEYYANKGLEVWVEYGLQSANFETLKKINRQHGVSDFVDAVLRTKKRNLKVCAHMIIGLPGETREDFIETAKLIASLPIDGIKIHPLHVIKGTVMEKQYLNEEFKTLTLEEYAEYCADVIELLPPDMVVHRITGETDEERLIAPEWCTFKYKNAVIQKVRETLERRGTYQGARYPFYKYGVLEHHHHHH	soluble
MGSDKIHHHHHHMKKNQKISVEQLEVGTFIRLPISWKDHPFLFSSFKIKDAAQIELIKGLGLKDVFFDPEKSDVEPVTSENASTQKPDEQALNALKEQMISQKSAKIDEQQKLKRDLKKTEQQFNRSVSMMRSMVSKISSRPLNAVSEAKDLISNMTTMLLNSDNLALHLMGDAKNDEHIYHHSLNVAMLCMLMAKELGWSREEVETIGIGGLFHDIGKLKVPSNILNKRVPLTTPEENFIKQHPLMSINFLKLADSFPDEAKPLIANHHEYLDGSGYPQGLKADKLDKLSQLIAVVNEYDNLCNGTNQAKGKPPSIALGLLYKNYKNKLNVEYISKLIKMLGIYPPGSIIELSSGQFAMVMSVNLQKLLCPNIVVYDQLVPKDLAPIISLQDEGLSIVRSLPAAALPEKIHKYLNPREQISLGIGQN	not soluble
MRDGEGIWGRGRTGGHAHPKEAMHTTFFILGGTMLIGVISDTHLYDRAFELPKAVFDEFSNVDLIIHCGDVTDKEILDSLKDLAKVVAVKGNMDYLNLPRKEILEINDIKIGVIHGDVVYPRGDRLKLRLLGKEMGVDVLISGHTHTPFIDDCRDILLLNPGSPTVPRCPLKSIMKLSVEDKLEAKLIPIEE	soluble
MAHHHHHHMQRDADRMKRKKEEHRDEEEFGAFRFADGSMYEGKFCRRESNADGTAKSQFPSAHPPTTRNAQQQELPPPIPFHHGKGVFKDAGGLVYDGCWVEGDMTGEGLLRFPSGATYEGSMYANSFWGTGTYTWPDGSRYEGQWENNKMHGKGTYIDAKGKRWAGKFHHGQGVGLLAEVSL	soluble
MSLKIVDATVLVTCPGRNFVTLRITTDEGVTGLGDATLNGREQAVVAYLREHVVPLLLGTDPHRIEDTWQSLYRGAYWRRGPVTMAAIAAVDVALWDIKAKVANLPLYQLLGGASRERVRTYGHANGRDIPELLDSVRARQAEGYQAIRVQTGVPGLRKVYGVHTGEAIAHNPTRLDQRAVPVVEDWDTPAYLRHLPTVLEAVRNEFGPELPLLHDAHHRLTPLQAAKLGKDVERYDLFWLEDCTPAENQEAFRLVRHHTTTPLAVGEVFNTVFDYQTLIAEQLIDYARSAVTHFGGVSALRKLFDFAAQHQVKSAIHGPEDISPVGMAAAIHLDLAVHNFGIQEYSGHTDATNEVFRHAYTFTDGHLHPGEAPGIGVDYDEELAAAHPYDPAYLPVNRLADGTVHDWEGHHHHHH	not soluble
MKMPEHTDTPKEKILVYIRAEKQKTLHRRQVCINDIASVYCKYSRYEGQIKGIIVDKIRGKKSVISVMKIIEQITEIYDDAQVISIGEPEVLVEYDDNSKNKILEA	soluble
MSDDEIGDGARAFNQLIQALSLSIETETAVRTFTEMLVSELDVHQLTEQALALLLQHTGADGGAILIEVDGEIRVAASQGIGSAHTLANNDRVRSALRTERRHRVQLPEDLVVDGMLAQFRPKEVIIDPVRHKEVVLGAVVLASGQGFSAEDRNRLDVFERGLALALHNALLYDRLQTLAALDPLTGALEHHHHHH	soluble
